# According to IntAct's records for PubMed 11854298:
# B1: Estrogen receptor (Homo sapiens), P03372 (parent)
# chain: MTMTLHTKASGMALLHQIQGNELEPLNRPQLKIPLERPLGEVYLDSSKPAVYNYPEGAAYEFNAAAAANAQVYGQTGLPYGPGSEAAAFGSNGLGGFPPLNSVSPSPLMLLHPPPQLSPFLQPHGQQVPYYLENEPSGYTVREAGPPAFYRPNSDNRRQGGRERLASTNDKGSMAMESAKETRYCAVCNDYASGYHYGVWSCEGCKAFFKRSIQGHNDYMCPATNQCTIDKNRRKSCQACRLRKCYEVGMMKGGIRKDRRGGRMLKHKRQRDDGEGRGEVGSAGDMRAANLWPSPLMIKRSKKNSLALSLTADQMVSALLDAEPPILYSEYDPTRPFSEASMMGLLTNLADRELVHMINWAKRVPGFVDLTLHDQVHLLECAWLEILMIGLVWRSMEHPGKLLFAPNLLLDRNQGKCVEGMVEIFDMLLATSSRFRMMNLQGEEFVCLKSIILLNSGVYTFLSSTLKSLEEKDHIHRVLDKITDTLIHLMAKAGLTLQQQHQRLAQLLLILSHIRHMSNKGMEHLYSMKCKNVVPLYDLLLEMLDAHRLHAPTSRGGASVEETDQSHLATAGSTSSHSLQKYYITGEAEGFPATV
# partner: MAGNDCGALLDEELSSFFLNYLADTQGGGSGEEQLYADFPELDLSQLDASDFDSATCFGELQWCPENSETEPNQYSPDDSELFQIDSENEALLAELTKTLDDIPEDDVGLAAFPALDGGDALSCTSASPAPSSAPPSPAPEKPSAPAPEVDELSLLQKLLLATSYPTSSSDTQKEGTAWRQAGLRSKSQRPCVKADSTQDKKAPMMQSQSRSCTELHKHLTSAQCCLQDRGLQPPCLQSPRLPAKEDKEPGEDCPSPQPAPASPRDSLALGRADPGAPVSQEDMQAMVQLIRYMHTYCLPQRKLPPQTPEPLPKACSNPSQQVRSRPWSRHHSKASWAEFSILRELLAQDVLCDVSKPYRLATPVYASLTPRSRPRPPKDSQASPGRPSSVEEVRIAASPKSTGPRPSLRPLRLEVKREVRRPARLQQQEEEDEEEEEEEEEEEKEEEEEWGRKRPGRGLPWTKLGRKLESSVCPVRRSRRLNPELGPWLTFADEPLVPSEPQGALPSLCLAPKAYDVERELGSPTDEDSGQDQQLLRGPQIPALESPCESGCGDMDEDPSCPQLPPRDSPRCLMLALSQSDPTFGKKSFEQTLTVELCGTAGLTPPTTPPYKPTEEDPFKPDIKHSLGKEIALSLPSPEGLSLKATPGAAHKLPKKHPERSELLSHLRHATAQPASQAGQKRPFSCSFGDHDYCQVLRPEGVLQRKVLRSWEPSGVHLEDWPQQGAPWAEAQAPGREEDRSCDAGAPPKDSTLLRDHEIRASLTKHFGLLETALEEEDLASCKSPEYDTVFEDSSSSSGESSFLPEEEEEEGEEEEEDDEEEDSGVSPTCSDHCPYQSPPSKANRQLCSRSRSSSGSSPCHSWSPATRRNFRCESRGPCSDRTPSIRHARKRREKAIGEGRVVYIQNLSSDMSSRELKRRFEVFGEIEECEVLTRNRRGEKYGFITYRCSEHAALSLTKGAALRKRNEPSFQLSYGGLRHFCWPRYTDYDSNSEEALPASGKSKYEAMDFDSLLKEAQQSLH
# B2: Peroxisome proliferator-activated receptor gamma coactivator 1-beta (Homo sapiens), Q86YN6 (parent)
# chain: B1 partner
# Variants of: B1
# Details: with prgc2_human PPARGC1B
row,Variant,effect of a mutation on the interaction
1,MTMTLHTKASGMALLHQIQGNELEPLNRPQLKIPLERPLGEVYLDSSKPAVYNYPEGAAYEFNAAAAANAQVYGQTGLPYGPGSEAAAFGSNGLGGFPPLNSVSPSPLMLLHPPPQLSPFLQPHGQQVPYYLENEPSGYTVREAGPPAFYRPNSDNRRQGGRERLASTNDKGSMAMESAKETRYCAVCNDYASGYHYGVWSCEGCKAFFKRSIQGHNDYMCPATNQCTIDKNRRKSCQACRLRKCYEVGMMKGGIRKDRRGGRMLKHKRQRDDGEGRGEVGSAGDMRAANLWPSPLMIKRSKKNSLALSLTADQMVSALLDAEPPILYSEYDPTRPFSEASMMGLLTNLADRELVHMINWAKRVPGFVDLTLHDQVHLLECAWLEILMIGLVWRSMEHPGKLLFAPNLLLDRNQGKCVEGMVEIFDMLLATSSRFRMMNLQGEEFVCLKSIILLNSGVYTFLSSTLKSLEEKDHIHRVLDKITDTLIHLMAKAGLTLQQQHQRLAQLLLILSHIRHMSNKGMEHLYSMKCKNVVPLYDAALEMLDAHRLHAPTSRGGASVEETDQSHLATAGSTSSHSLQKYYITGEAEGFPATV [L539A;L540A],disrupting interaction strength

# Variants of: B2
# Details: with esr1_human ESR1, P03372
row,Variant,effect of a mutation on the interaction
1,L343A;L346A;L347A,decreasing interaction strength
2,L155A;L156A;L159A;L160A,decreasing interaction strength
3,L155A;L156A;L159A;L160A;L343A;L346A;L347A,disrupting interaction strength
